The nature of data set [1]: Autolytic degradation by SDS-PAGE. The class given is physicochemical. Conditions: incubation at 50° C. up to 24 h; not shown. On the procedure: Autolytic degradation of the protease was investigated by SDS-PAGE. The AL protease and Subtilisin Carlsberg were individually incubated in 10 mM Tris-HCl buffer 8 for 24 h at 50° C. Electrophoresis of the enzyme samples taken at different time intervals was performed according to the method of Laemmli, on 12% polyacrylamide gel using a Mini Protean II equipment (Bio-Rad, Richmond, Calif.).

Data set [2] is described as follows: Circular dichroism spectroscopy. The class given is physicochemical. On the procedure: The conformational stability of the AL protease was examined by circular dichroism (CD) spectroscopy and compared with that of Subtilisin Carlsberg (bacterial protease, type VIII; Sigma Chemical Co., St. Louis, USA). The CD spectra of the proteins were obtained on a Jasco spectropolarimeter model J-720, at 25° C. in the far UV range from 195 to 250 nm at a scan rate of 10 nm/min using a sample cell path length of 0.1 cm. The ellipticity values (θ) for every nm wavelength increase were obtained in mdeg directly from the instrument and were recorded online in a computer. An average of 6 scans was calculated and the corresponding no-enzyme spectra were subtracted for each sample.

Data set [3] can be described thus: Differential scanning calorimetry. The class given is physicochemical. On the procedure:
The influence of different parameters including pH, calcium ions, EDTA, and detergent on thermal stability of the AL protease was investigated by differential scanning calorimetry (DSC). Comparative studies were also performed with Subtilisin Carlsberg. Thermal scans of AL protease (0.3 mg protein/ml) and subtilisin (2.5 mg protein/ml in the presence of 1 mM phenyl-methanesulfonyl fluoride (PMSF); Sigma) were performed by increasing temperature from 25° C. to 95° C. at a scan rate of 1° C. per min on a VP-DSC (MicroCal, Northampton, Mass.). The thermograms were corrected by subtracting the base line, obtained from a blank scan of the no-enzyme solution, and normalized for protein concentration. The unfolding transition of the AL protease was fitted to a two-state model. The Tm (temperature at which heat capacity change is a maximum), the calorimetric (or true) enthalpy ΔHcal (peak area), and van't Hoff (or apparent) enthalpy AHVH (calculated from the shape of thermogram) were calculated using the Origin software provided by MicroCal.

Substrate in data set [4]: CCCC(=O)Oc1ccc([N+](=O)[O-])cc1
As to the kind of experiment: Assay with synthetic peptide, pNA, AMC, NNap and ester substrates (kinetic parameters). The class given is biochemical, Nesterenkonia sp. AL. Conditions: other: substrate marked b (footnote not given), 50 mM Tris-HCl buffer, pH 9.

The target of data set [5] is T1, N-succinyl-Ala-Ala-Phe-7-amino-4-methyl coumarin.
T1 chain: AAF

In data set [6] the target is T2, N-succinyl-Ala-Ala-Pro-Phe-p-nitroanilide.
T2 chain: AAPF

In data set [7] the target is T3, N-succinyl-Leu-Tyr-7-amino-4-methyl coumarin.
T3 chain: LY

The target of data set [8] is T4, N-succinyl-Ala-Ala-Pro-Leu-p-nitroanilide.
T4 chain: AAPL

The target in data set [9] is T5, N-succinyl-Leu-Leu-Val-Tyr-7-amino-4-methyl coumarin.
T5 chain: LLVY

Data set [10] concerns the target T6, N-succinyl-Phe-Leu-Phe thiobenzyl ester.
T6 chain: FLF

[11] abbreviates: 0.1% (w/v) SDS vs untreated, pH 10.0.
The mark [12] stands for this setting: untreated, 10 mM glycine-NaOH buffer, pH 10.0 (subtilisin with 1 mM PMSF).
Where [13] appears, read: untreated, 10 mM glycine-NaOH buffer, pH 10.0 (subtilisin with 1 mM PMSF), listed as Subtilisin.

B1: Subtilisin Carlsberg: bacterial protease, type VIII; Sigma; one of the first commercial alkaline proteases (protein, UniProt P00780 106-379, looked up)
Subtilisin Carlsberg: AQTVPYGIPLIKADKVQAQGFKGANVKVAVLDTGIQASHPDLNVVGGASFVAGEAYNTDGNGHGTHVAGTVAALDNTTGVLGVAPSVSLYAVKVLNSSGSGSYSGIVSGIEWATTNGMDVINMSLGGASGSTAMKQAVDNAYAKGVVVVAAAGNSGSSGNTNTIGYPAKYDSVIAVGAVDSNSNRASFSSVGAELEVMAPGAGVYSTYPTNTYATLNGTSMASPHVAGAAALILSKHPNLSASQVRNRLSSTATYLGSSFYYGKGLINVEAAAQ
For the molecule B1, the “Degradation on gel electrophoresis” value in [1] was “considerable degradation”. In addition, the “Secondary structure in the presence of SDS” value in data set [2] (0.1-1% (w/v) SDS, data not shown) is listed as “complete loss of secondary structure”. For the same molecule, the “Secondary structure after incubation” value in data set [2] (24 h at 50° C., 10 mM glycine-NaOH buffer, pH 10.0) is “substantial loss of structure”. In data set [3] (1 mM PMSF present, pH 10.0), the “Tm on addition of Ca^2+” value is reported as “remained unchanged”. Further, in [3] (10 mM EDTA, 1 mM PMSF present), the “Lowering of Tm” value was determined as 10 °C. Besides, the ΔHcal in data set [3] (10 mM EDTA, 1 mM PMSF present) is listed as 152 kcal/mol; in data set [3] (+0.1% SDS, pH 10.0), 144 ± 0.5 kcal/mol; in data set [3] (+0.2% SDS, pH 10.0) it was 103 ± 0.2 kcal/mol; in data set [3] (setting [12]), 203 kcal/mol; in [3] (setting [13]), 203 ± 0.9 kcal/mol. In data set [3] (setting [11]), the “Decrease in Tm” value came to 13 °C. For the same molecule, the “Decrease in ΔHcal” value in data set [3] (setting [11]) was 59 kcal/mol. Further, in [3] (0.2% SDS vs 0.1% SDS, pH 10.0), the “Further lowering in Tm” value was 3 °C. Further, the “Further lowering in ΔHcal” value in [3] (0.2% SDS vs 0.1% SDS, pH 10.0) is 41 kcal/mol. Further, the Tm in [3] (+0.1% SDS, pH 10.0) came to 54.5 ± 0.02 °C; in [3] (+0.2% SDS, pH 10.0), 51.1 ± 0.01 °C; in [3] (setting [12]), 67.3 °C; in [3] (setting [13]), 67.3 ± 0.02 °C.

B2: AL protease (alkaline protease from Nesterenkonia sp. nov. strain AL, DSM 15380) (protein)
chain: QNPADSPHIGKVFFSTNQGDFVCSANIVASANQSTVATAGHCLHDGNGGQFARNFVFAPAYDYGESEHGVWAAEELVTSAEWANRGDFEHDYAFAVLETKGGTTVQQQVGTASPIAFNQPRGQYYSAYGYPAAAPFNGQELHSCHGTATNDPMGSSTQGIPCNMTGGSSGGPWFLGQGTGGAQNSVNSYGYTFLPDVMFGPYFGSGAQQNYNYAST
B2: the Km (commonly the concentration of substrate that gives half-maximal velocity) worked out at 1050 µM in data set [4], 2970 µM in data set [6], 9300 µM in data set [8] and 15 µM in data set [9]. Moreover, the catalytic constant (kcat) (usually the number of substrate molecules converted per active site and unit of time at saturation) in data set [4] came to 63.7 s⁻¹; in data set [6] it was 4390 s⁻¹; in data set [8] it was 6650 s⁻¹; in [9], 51.7 s⁻¹. Further, the kcat/Km (as a rule, the turnover number divided by the Michaelis constant) in [4] came out at 60800 M⁻¹ s⁻¹; in data set [6], 1.48e+06 M⁻¹ s⁻¹; in [8], 715000 M⁻¹ s⁻¹; in data set [9], 3.45e+06 M⁻¹ s⁻¹. Also, the “specific activity toward synthetic substrate” value in data set [5], in data set [7] and in data set [10] was “only able of hydrolysing those substrates at a very low rate when high substrate concentration (10 mM) was used; between 0.002 to 0.008 U/mg” each time.

The record behind these values is patent US20060142171A1, “Novel alkaline protease” (priority 2003, published 2006).
